Laboratory results as given in patent publication US9724381B2 (THE ADMINISTRATORS OF THE TULANE EDUCATIONAL FUND, priority 2009, dated 2017).
Several values for one entry are separate records, joined by “and”; a condition that tells them apart may be missing. Equal values may be shown once. Each block holds one substance with its values, some of them ahead of it. Where no end group is shown, it is not given here. [ ]: non-standard residue; d: D form. d1Nal = N[C@H](Cc1cccc2ccccc12)C(=O)O; d2Nal = N[C@H](Cc1ccc2ccccc2c1)C(=O)O; dCha = N[C@H](CC1CCCCC1)C(=O)O; Nle = CCCC[C@H](N)C(=O)O

Target: Ghrelin/GHRP/GHS Receptor (Rattus norvegicus, UniProt O08725)
Experiment: In vivo GH release in rat (serum GH by RIA after i.v. peptide)
Details: for Unstimulated Basal GH release from rats: Table 5; for Unstimulated Basal GH Release from rat: Table 3; for Stimulated (S) GH release from rats / Unstimulated GH release from rats: Table 4, pentobarbital rats; for Stimulated (S) GH release from rats: P + S, stimulator 1 μg; for Unstimulated GH release from rats: −S
Protocol: For the in vivo assay of GH Release in rat, immature female Sprague Dawley rats were obtained from Charles River from Wilmington, Mass. After arrival they were housed at 25° C. with a 14:10 h light:dark cycle. Water and Purina rat chow were available at libitum. Pups were weaned at 21 days of age.
Immature twenty six day old female Sprague Dawley rats, 3-6 rats per treatment dose, were pretreated with pentobarbital 20 minutes before iv injection of vehicle/peptide or peptide plus stimulator. Injection was made as a 0.1 ml solution. For the non-pentobarbital treated rat assay, peptides were administered iv into the tail vein of conscious rats. All animals were sacrificed by guillotine after iv peptide or vehicle. Trunk blood was collected at +10-15 minutes […], allowed to clot, centrifuged and serum stored until assayed for GH levels by RIA. The GH RIA reagents were distributed by the NIH. Control data was collected from rats treated with only the corresponding vehicle in the absence of peptide or stimulator. Control stimulated data was collected from rats treated with stimulator alone in the absence of any peptide.

[1] = Table 2, peptide antagonist 30 μg i.v. + stimulator DAla-DβNal-Ala-Trp-DPhe-Lys-NH2 0.3 μg
[2] = Table 2, peptide antagonist 3 μg i.v. + stimulator DAla-DβNal-Ala-Trp-DPhe-Lys-NH2 1 μg
[3] = Table 2, peptide antagonist 10 μg i.v. + stimulator DAla-DβNal-Ala-Trp-DPhe-Lys-NH2 1 μg
[4] = Table 2, peptide antagonist 30 μg i.v. + stimulator DAla-DβNal-Ala-Trp-DPhe-Lys-NH2 1 μg
[5] = Table 2, peptide antagonist 100 μg i.v. + stimulator DAla-DβNal-Ala-Trp-DPhe-Lys-NH2 1 μg
[6] = peptide antagonist alone 1 μg i.v.
[7] = peptide antagonist alone 3 μg i.v.
[8] = peptide antagonist alone 10 μg i.v.

Sequence of Ghrelin/GHRP/GHS Receptor (O08725 whole entry): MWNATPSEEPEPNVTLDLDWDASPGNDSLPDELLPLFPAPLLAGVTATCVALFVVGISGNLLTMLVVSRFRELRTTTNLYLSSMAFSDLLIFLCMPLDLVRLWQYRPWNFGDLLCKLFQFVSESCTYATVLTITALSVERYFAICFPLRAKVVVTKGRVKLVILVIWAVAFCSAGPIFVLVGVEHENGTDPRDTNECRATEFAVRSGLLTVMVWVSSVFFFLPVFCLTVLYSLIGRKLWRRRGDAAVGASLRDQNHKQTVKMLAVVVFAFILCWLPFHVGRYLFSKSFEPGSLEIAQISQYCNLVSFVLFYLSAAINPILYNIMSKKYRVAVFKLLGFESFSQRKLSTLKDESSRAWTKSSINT

Substance: Alaψ[CH2NH]-DβNal-Ala-Trp-DPhe-Lys-NH2 (A[d2Nal]AW[dF]K-NH2; also: Ala1-DβNal2 reduced bond ψ[CH2NH])
Stimulated GH release from rat [2]: 2771 ± 157 ng/mL
Stimulated GH release from rat [3]: 2341 ± 416 ng/mL
Stimulated GH release from rat [4]: 1948 ± 450 ng/mL
Stimulated GH release from rat [5]: 1639 ± 221 ng/mL

Substance: Alaψ[CH2NH]His-DTrp-Ala-Trp-DPhe-Lys-NH2 (AH[dW]AW[dF]K-NH2; also: reduced bond ψ[CH2NH] between Ala1 and His2)
Unstimulated Basal GH release from rats [6]: 127 ± 32 ng/mL
Unstimulated Basal GH release from rats [7]: 147 ± 37 ng/mL

Substance: DAla-Ala-DAla-DTrp-Phe-Lys-NH2 ([dA]A[dA][dW]FK-NH2; N-terminus assumed; SMILES C[C@H](NC(=O)[C@@H](C)N)C(=O)N[C@H](C)C(=O)N[C@H](Cc1c[nH]c2ccccc12)C(=O)N[C@@H](Cc1ccccc1)C(=O)N[C@@H](CCCCN)C(N)=O)
Unstimulated Basal GH release from rats [8]: 228 ± 76 ng/mL
Unstimulated Basal GH release from rats (peptide antagonist alone 30 μg i.v.): 172 ± 14 ng/mL
Unstimulated Basal GH release from rats (peptide antagonist alone 100 μg i.v.): 153 ± 45 ng/mL

Substance: DAla-DcyclohexylAla-Ala-Phe-DPhe-Nle-NH2 ([dA][dCha]AF[dF][Nle]-NH2; N-terminus assumed; SMILES CCCC[C@H](NC(=O)[C@@H](Cc1ccccc1)NC(=O)[C@H](Cc1ccccc1)NC(=O)[C@H](C)NC(=O)[C@@H](CC1CCCCC1)NC(=O)[C@@H](C)N)C(N)=O)
Unstimulated Basal GH Release from rat (peptide alone 1 μg i.v.): 435 ± 152 ng/mL
Unstimulated Basal GH Release from rat (peptide alone 3 μg i.v.): 195 ± 34 ng/mL
Unstimulated Basal GH Release from rat (peptide alone 10 μg i.v.): 250 ± 41 ng/mL
Unstimulated Basal GH Release from rat (peptide alone 30 μg i.v.): 393 ± 51 ng/mL
Unstimulated Basal GH Release from rat (peptide alone 100 μg i.v.): 697 ± 75 ng/mL

Substance: DAla-DβNal-Ala-Ala-DAla-Lys-NH2 ([dA][d2Nal]AA[dA]K-NH2; N-terminus assumed; SMILES C[C@H](NC(=O)[C@H](C)NC(=O)[C@@H](Cc1ccc2ccccc2c1)NC(=O)[C@@H](C)N)C(=O)N[C@H](C)C(=O)N[C@@H](CCCCN)C(N)=O)
Unstimulated Basal GH Release from rat (peptide alone 3 μg i.v.): 235 ± 43 ng/mL
Unstimulated Basal GH Release from rat (peptide alone 10 μg i.v.): 178 ± 33 ng/mL
Unstimulated Basal GH Release from rat (peptide alone 30 μg i.v.): 172 ± 15 ng/mL
Unstimulated Basal GH Release from rat (peptide alone 100 μg i.v.): 185 ± 39 ng/mL

Substance: DAla-DβNal-Ala-Thr-DThr-Lys-NH2 ([dA][d2Nal]AT[dT]K-NH2; N-terminus assumed; SMILES C[C@H](NC(=O)[C@@H](Cc1ccc2ccccc2c1)NC(=O)[C@@H](C)N)C(=O)N[C@H](C(=O)N[C@@H](C(=O)N[C@@H](CCCCN)C(N)=O)[C@H](C)O)[C@@H](C)O)
Unstimulated Basal GH Release from rat (peptide alone 3 μg i.v.): 255 ± 38 ng/mL
Unstimulated Basal GH Release from rat (peptide alone 30 μg i.v.): 288 ± 31 ng/mL
Unstimulated Basal GH Release from rat (peptide alone 100 μg i.v.): 386 ± 57 ng/mL

Substance: DAla-DβNal-Ala-Trp-DPhe-Lys-NH2 ([dA][d2Nal]AW[dF]K-NH2) [reference compound]
Stimulated Control 0.3 μg, GH release from rat (Table 2, stimulator DAla-DβNal-Ala-Trp-DPhe-Lys-NH2 alone, 0.3 μg): 2253 ± 252 ng/mL and 1412 ± 400 ng/mL
Stimulated Control 1 μg, GH release from rat (Table 2, stimulator DAla-DβNal-Ala-Trp-DPhe-Lys-NH2 alone, 1 μg): 3214 ± 276 ng/mL and 3105 ± 429 ng/mL and 2406 ± 288 ng/mL and 2825 ± 134 ng/mL and 3104 ± 429 ng/mL

Substance: DAla-DβNal-DLys-DTrp-Phe-Lys-NH2 ([dA][d2Nal][dK][dW]FK-NH2; N-terminus assumed; SMILES C[C@@H](N)C(=O)N[C@H](Cc1ccc2ccccc2c1)C(=O)N[C@H](CCCCN)C(=O)N[C@H](Cc1c[nH]c2ccccc12)C(=O)N[C@@H](Cc1ccccc1)C(=O)N[C@@H](CCCCN)C(N)=O)
Stimulated GH release from rat [4]: 2884 ± 828 ng/mL
Stimulated GH release from rat [5]: 1198 ± 114 ng/mL
Stimulated (S) GH release from rats (peptide 30 μg i.v.): 2864 ± 828 ng/mL
Stimulated (S) GH release from rats (peptide 100 μg i.v.): 1198 ± 114 ng/mL
Unstimulated GH release from rats (peptide 30 μg i.v.): 323 ± 50 ng/mL
Unstimulated GH release from rats (peptide 100 μg i.v.): 812 ± 6 ng/mL

Substance: DLys-DβNal-Ala-Trp-DPhe-Lys-NH2 ([dK][d2Nal]AW[dF]K-NH2; N-terminus assumed; SMILES C[C@H](NC(=O)[C@@H](Cc1ccc2ccccc2c1)NC(=O)[C@H](N)CCCCN)C(=O)N[C@@H](Cc1c[nH]c2ccccc12)C(=O)N[C@H](Cc1ccccc1)C(=O)N[C@@H](CCCCN)C(N)=O)
Unstimulated GH release from rats (peptide 3 μg i.v.): 616 ± 169 ng/mL
Unstimulated GH release from rats (peptide 10 μg i.v.): 847 ± 17 ng/mL
Unstimulated GH release from rats (peptide 30 μg i.v.): 629 ± 146 ng/mL
Unstimulated GH release from rats (peptide 100 μg i.v.): 228 ± 45 ng/mL

Substance: DcyclohexylAla-Ala-Trp-DPhe-NH2 ([dCha]AW[dF]-NH2; N-terminus assumed; SMILES C[C@H](NC(=O)[C@H](N)CC1CCCCC1)C(=O)N[C@@H](Cc1c[nH]c2ccccc12)C(=O)N[C@H](Cc1ccccc1)C(N)=O)
Unstimulated Basal GH Release from rat (peptide alone 3 μg i.v.): 181 ± 28 ng/mL
Unstimulated Basal GH Release from rat (peptide alone 10 μg i.v.): 237 ± 18 ng/mL
Unstimulated Basal GH Release from rat (peptide alone 30 μg i.v.): 354 ± 81 ng/mL
Unstimulated Basal GH Release from rat (peptide alone 100 μg i.v.): 771 ± 76 ng/mL

Second part, the substance after the results:

Stimulated GH release from rat [1]: 1487 ± 397 ng/mL
Substance: Ala-His-DTrp-DLys-Trp-DPhe-Lys-NH2 (AH[dW][dK]W[dF]K-NH2; N-terminus assumed; SMILES C[C@H](N)C(=O)N[C@@H](Cc1c[nH]cn1)C(=O)N[C@H](Cc1c[nH]c2ccccc12)C(=O)N[C@H](CCCCN)C(=O)N[C@@H](Cc1c[nH]c2ccccc12)C(=O)N[C@H](Cc1ccccc1)C(=O)N[C@@H](CCCCN)C(N)=O)

Unstimulated Basal GH Release from rat (peptide alone 1 μg i.v.): 184 ± 55 ng/mL
Unstimulated Basal GH Release from rat (peptide alone 3 μg i.v.): 467 ± 201 ng/mL
Unstimulated Basal GH Release from rat (peptide alone 10 μg i.v.): 244 ± 107 ng/mL
Substance: DAla-DβNal-DAla-DTrp-Phe-Lys-NH2 ([dA][d2Nal][dA][dW]FK-NH2)

Unstimulated Basal GH release from rats [6]: 60 ± 5 ng/mL
Unstimulated Basal GH release from rats [7]: 130 ± 24 ng/mL
Unstimulated Basal GH release from rats [8]: 134 ± 31 ng/mL
Substance: DThr-DαNal-DTrp-DPro-Arg-NH2 ([dT][d1Nal][dW][dP]R-NH2; N-terminus assumed; SMILES C[C@H](O)[C@@H](N)C(=O)N[C@H](Cc1cccc2ccccc12)C(=O)N[C@H](Cc1c[nH]c2ccccc12)C(=O)N1CCC[C@@H]1C(=O)N[C@@H](CCCNC(=N)N)C(N)=O)

Unstimulated Basal GH Release from rat (peptide alone 1 μg i.v.): 199 ± 63 ng/mL
Unstimulated Basal GH Release from rat (peptide alone 3 μg i.v.): 266 ± 68 ng/mL
Unstimulated Basal GH Release from rat (peptide alone 10 μg i.v.): 199 ± 23 ng/mL
Unstimulated Basal GH Release from rat (peptide alone 30 μg i.v.): 346 ± 82 ng/mL
Unstimulated Basal GH Release from rat (peptide alone 100 μg i.v.): 350 ± 61 ng/mL
Substance: DcyclohexylAla-Ala-Phe-DTrp-Lys-NH2 ([dCha]AF[dW]K-NH2; N-terminus assumed; SMILES C[C@H](NC(=O)[C@H](N)CC1CCCCC1)C(=O)N[C@@H](Cc1ccccc1)C(=O)N[C@H](Cc1c[nH]c2ccccc12)C(=O)N[C@@H](CCCCN)C(N)=O)

Unstimulated Basal GH Release from rat (peptide alone 1 μg i.v.): 623 ± 60 ng/mL
Unstimulated Basal GH Release from rat (peptide alone 3 μg i.v.): 694 ± 70 ng/mL
Unstimulated Basal GH Release from rat (peptide alone 10 μg i.v.): 654 ± 58 ng/mL
Unstimulated Basal GH Release from rat (peptide alone 30 μg i.v.): 713 ± 71 ng/mL
Substance: DβNal-Ala-Trp-DPhe-Ala-NH2 ([d2Nal]AW[dF]A-NH2; N-terminus assumed; SMILES C[C@H](NC(=O)[C@@H](Cc1ccccc1)NC(=O)[C@H](Cc1c[nH]c2ccccc12)NC(=O)[C@H](C)NC(=O)[C@H](N)Cc1ccc2ccccc2c1)C(N)=O)

Unstimulated Basal GH Release from rat (peptide alone 3 μg i.v.): 253 ± 79 ng/mL
Unstimulated Basal GH Release from rat (peptide alone 10 μg i.v.): 277 ± 43 ng/mL
Unstimulated Basal GH Release from rat (peptide alone 30 μg i.v.): 347 ± 66 ng/mL
Unstimulated Basal GH Release from rat (peptide alone 100 μg i.v.): 645 ± 117 ng/mL
Substance: DβNal-Ala-Trp-DPhe-Leu-NH2 ([d2Nal]AW[dF]L-NH2; N-terminus assumed; SMILES CC(C)C[C@H](NC(=O)[C@@H](Cc1ccccc1)NC(=O)[C@H](Cc1c[nH]c2ccccc12)NC(=O)[C@H](C)NC(=O)[C@H](N)Cc1ccc2ccccc2c1)C(N)=O)

Stimulated GH release from rat (Table 2, peptide antagonist 10 μg i.v. + stimulator DAla-DβNal-Ala-Trp-DPhe-Lys-NH2 0.3 μg): 1112 ± 200 ng/mL
Stimulated GH release from rat [3]: 2307 ± 176 ng/mL and 1842 ± 454 ng/mL
Stimulated GH release from rat [1]: 578 ± 82 ng/mL
Stimulated GH release from rat [4]: 890 ± 236 ng/mL and 1135 ± 140 ng/mL
Substance: Glyψ[CH2NH]-DβNal-Ala-Trp-DPhe-Lys-NH2 (G[d2Nal]AW[dF]K-NH2; also: reduced Gly-ψ[CH2NH] bond between Gly1 and DβNal2)

Stimulated GH release from rat (Table 2, peptide antagonist 1 μg i.v. + stimulator DAla-DβNal-Ala-Trp-DPhe-Lys-NH2 1 μg): 2305 ± 320 ng/mL
Stimulated GH release from rat [2]: 1990 ± 196 ng/mL
Stimulated GH release from rat [3]: 1550 ± 284 ng/mL
Stimulated GH release from rat [4]: 946 ± 133 ng/mL
Stimulated GH release from rat [5]: 462 ± 122 ng/mL
Substance: Glyψ[CH2NH]-DβNal-DLys-Trp-DPhe-Lys-NH2 (G[d2Nal][dK]W[dF]K-NH2; also: reduced Gly-ψ[CH2NH] bond between Gly1 and DβNal2)
